Measurements taken from the MegaScale stability set (Tsuboyama et al. 2023).

B1: r4_43_TrROS_Hall (parent)
chain: DLVTIKVPLENLEEIKKAAEKAGFKIVSISYDKENKEVTIVIEKKK
B2: 6YSE (parent)
chain: HERALMVNRLQKLTRMLRVHPDPKWKQEQQELIKRLK

Variants of: B1
Test: folding stability dG (cDNA display proteolysis); higher = more stable
Conditions: PBS, room temperature

Folding stability dG [kcal/mol], by site and new letter:
T4: E 3.5 | K 3.56 | L 3.46 | F 3.68 | Y 4.13 | H 3.64 | P 3.02 | G 3.14 | C 3.44 | R 3.52 | I 3.54 | D 2.98 | V 3.48 | W 3.88 | N 3.45 | A 3.92 | S 3.78 | M 3.65 | Q 3.38
V3: E 3.1 | I 3.36 | S 3.62 | K 3.45 | H 3.69 | T 3.66 | Y 4.03 | Q 3.65 | G 3.13 | L 3.62 | C 3.72 | W 4.34 | P 2.93 | D 3.18 | R 3.4 | M 3.66 | F 4.06 | N 3.25 | A 3.33
D1: Q 3.82 | N 3.79 | H 3.83 | A 3.81 | R 3.42 | W 4.07 | P 3.56 | F 3.9 | L 3.84 | S 3.84 | I 3.87 | K 3.81 | G 3.47 | C 3.7 | V 4 | E 3.66 | T 3.83 | Y 3.87 | M 4.1
V7: H 3.12 | E 2.93 | F 3.46 | I 3.6 | N 2.53 | S 3.71 | A 3.81 | W 3.44 | Q 3.04 | M 3.63 | C 3.66 | D 1.97 | R 3.3 | L 3.51 | G 3.46 | P 2.19 | T 3.57 | K 3.01
I5: K 3.27 | F 4.32 | C 3.01 | E 2.86 | N 2.61 | D 2.34 | W 4.23 | R 3.1 | G 1.98 | M 3.79 | T 3.42 | P 1.48 | A 3.14 | V 3.79 | S 2.9 | Y 4.42 | H 3.23 | L 4.01 | Q 3.15
L2: M 3.66 | T 3.93 | G 3.42 | S 3.39 | V 3.91 | P 3.23 | Q 3.85 | A 3.4 | I 3.13 | Y 4.08 | C 3.41 | E 3.45 | F 3.76 | R 3.58 | W 3.78 | H 3.43 | N 3.23 | K 3.52 | D 3.35
K6: E 2.83 | A 3.51 | M 3.31 | N 3.37 | F 3.62 | V 3.5 | T 3.77 | D 2.82 | C 3.32 | I 3.75 | R 3.84 | H 3.71 | L 3.31 | G 2.98 | W 3.39 | S 3.52 | Q 3.04 | Y 3.48 | P 2.42

Variants of: B2
Test: as above
Conditions: PBS, room temperature

Folding stability dG [kcal/mol]: each site, then its substitutions
Q30: C 1.75 | W 1.39 | K 0.968 | V 1.1 | D 0.872 | E 1.38 | S 1.11 | L 1.52 | Y 1.04 | G 0.68
I33: V 0.738 | K 0.269 | W 0.93 | Q -0.155 | L 1.17 | T 0.17 | M 0.592 | E -0.101
W25: D 0.337 | M 1.71 | N 0.386 | Y 1.32 | F 1.25
E2: P 0.758 | L 1.59 | M 1.46 | H 1.05 | V 1.23 | N 1.22
E31: I 1.14 | D 1.38 | A 1.2 | F 1.01 | R 1.15 | G 0.441 | W 1.4
A4: F 1.12 | L 1.49 | D 1.35 | K 1.68 | W 1.7 | V 1.23 | N 1.31
P21: K 1.04 | T 0.908 | G 0.843 | R 0.878 | C 0.966 | E 1.09 | H 1.57 | F 2.15 | V 0.805 | Q 1.36
R35: I 1.58 | N 0.739 | M 0.84
E28: A 0.638 | V 0.452
M6: Y -0.185 | N -0.861 | W 0.832 | G -0.19 | H 0.07 | L 1.46 | F -0.384 | S 0.112
L17: V -0.191 | Q -0.895 | N 0.006 | M 0.852 | R -0.68
L13: I 1.07 | C -0.58
D22: N 1.67 | L 1.22 | S 1.09 | E 0.749
V19: N 1.44 | E 1.19 | A 1.21 | D 1.13 | H 1.38 | Q 1.41 | F 1.51 | G 1.34 | R 1.55
K24: N 0.982 | G 0.85 | T 1.3
L10: I 0.954 | M -0.327 | W -0.405
Q11: I 2.12 | H 1.38 | Y 1.41 | L 1.69 | M 1.73 | R 2.14 | S 1.1
Q27: D 0.957 | V 0.985 | G 0.59 | N 1.09 | L 1.62
T14: G 0.779 | I 1.35 | H 0.917 | A 1.32 | Q 0.979
H1: K 1.42 | Y 1.59 | S 1.5 | M 1.68 | T 1.45 | R 1.63 | A 1.55 | C 2.12 | D 1.53 | I 1.34 | P 1.31
L36: F 0.524
K34: C 1.59 | W 0.902
R9: H 0.157 | Y 0.605 | C 1.19 | T -0.04 | L 0.938
H20: L 0.97 | F 1.39 | M 1.06 | A 0.952 | W 1.39 | I 1.06 | R 1.19
K37: M 1.7
R18: A 1.45 | E 0.715 | Q 1.19 | V 0.181 | F 0.738 | G 0.577 | M 1.29 | N 0.669 | S 0.989 | D 0.512
R15: I 1.14 | T 0.631 | V 0.95 | L 1.31
K12: D 1 | W 2.78 | R 1.3 | H 1.37 | I 1.43 | T 1.3
M16: S -0.421 | W 1.26
K26: F 1.53 | T 0.715 | A 0.85 | H 1.01 | G -0.052 | L 1.45 | D -0.129
N8: G 1.23 | F 1.21 | V 1.77
L32: F -0.201
V7: C 1.96 | W 1.96 | H 1.09 | R 1.55 | S 0.086 | A 0.946 | I 1.78 | P -0.01
P23: T 0.669 | F 0.718 | S 0.806 | E 0.721 | R 0.598 | L 0.804 | G 0.641 | A 1.03 | Q 0.666
R3: G 0.193 | N 0.899 | T 1.06 | E 0.651
Q29: E 0.805 | M 1.72 | V 1.68
L5: M 1.83 | S 1.48 | D 1 | N 1.11 | R 1.79 | F 1.19 | A 1.6 | K 1.6 | G 1.16
